B1: 5260 (antibody, V domains shown)
VH: QVQLVQSGAEVKKPGSSVKVSCKASGGTFSSYAISWVRQAPGQGLEWMGSIIPIFGTANYAQKFQGRVTITADESTSTAYMELSSLRSEDTAVYYCARSGGTKYGMLDVWGQGTMVTVSS
VL: EIVMTQSPATLSVSPGERATLSCRASQSVGSNLAWYQQKPGQAPRLLIYGASTRATGIPARFSGSGSGTEFTLTISSLQSEDFAVYYCQQAVVWPPRTFGGGTKVEIK
B2: 5643 (antibody, V domains shown)
VH: QLQLQESGPGLVKPSETLSLTCTVSGGSISSSSYYWGWIRQPPGKGLEWIGSIYYSGSTYYNPSLKSRVTISVDTSKNQFSLKLSSVTAADTAVYYCARVGHGISYFDLWGRGTLVTVSS
VL: EIVLTQSPATLSLSPGERATLSCRASQSVSSYLAWYQQKPGQAPRLLIYDASNRATGIPARFSGSGSGTDFTLTISSLEPEDFAVYYCQQSLTWPPRTFGGGTKVEIK
B3: 5572 (antibody, V domains shown)
VH: QVQLVQSGAEVKKPGSSVKVSCKASGGTFSSYAISWVRQAPGQGLEWMGSIIPIFGTANYAQKFQGRVTITADESTSTAYMELSSLRSEDTAVYYCARSGGTKYGMLDVWGQGTMVTVSS
VL: EIVMTQSPATLSVSPGERATLSCRASQSVGSNLAWYQQKPGQAPRLLIYGASTRATGIPARFSGSGSGTEFTLTISSLQSEDFAVYYCQQLYTWPPRTFGGGTKVEIK
B4: 5571 (antibody, V domains shown)
VH: QVQLVQSGAEVKKPGSSVKVSCKASGGTFSSYAISWVRQAPGQGLEWMGNIIPIFGTANYAQKFQGRVTITADESTSTAYMELSSLRSEDTAVYYCARSGGTKYGMLDVWGQGTVVTVSS
VL: EIVMTQSPATLSVSPGERATLSCRASQSVSSNLAWYQQKPGQAPRLLIYGASTRATGIPARFSGSGSGTEFTLTISSLQSEDFAVYYCQQLILWPPRTFGGGTKVEIK
B5: 5902 (antibody, V domains shown)
VH: QLQLQESGPGLVKPSETLSLTCTVSGGSISSSSYYWGWIRQPPGKGLEWIGSIYRSGSTWYNPSLKSRVTISVDTSKNQFSLKLSSVTAADTAVYYCARVGHGISYFDLWGRGTLVTVSS
VL: EIVLTQSPATLSLSPGERATLSCRASQSVSSYLAWYQQKPGQAPRLLIYDASKRATGIPARFSGSGSGTDFTLTISSLEPEDFAVYYCQQVYTWPPRTFGGGTKVEIK
B6: 5536 (antibody, V domains shown)
VH: QVQLVQSGAEVKKPGSSVKVSCKASGGTFSSYAISWVRQAPGQGLEWMGSIIPIFGTANYAQKFQGRVTITADESTSTAYMELSSLRSEDTAVYYCARSGGTKYGMLDVWGQGTMVTVSS
VL: EIVMTQSPATLSVSPGERATLSCRASQSVGSNLAWYQQKPGQAPRLLIYGASTRATGIPARFSGSGSGTEFTLTISSLQSEDFAVYYCQQSYLWPPRTFGGGTKVEIK
B7: 5747 (antibody, V domains shown)
VH: QLQLQESGPGLVKPSETLSLTCTVSGGSISSSSYYWGWIRQPPGKGLEWIGNIYYSGSTYYNPSLKSRVTISVDTSKNQFSLKLSSVTAADTAVYYCARLGHGYSYFDLWGRGTLVTVSS
VL: EIVLTQSPATLSLSPGERATLSCRASQSVSSYLAWYQQKPGQAPRLLIYDASNRATGIPARFSGSGSGTDFTLTISSLEPEDFAVYYCQQVYLWPPRTFGGGTKVEIK
B8: 5543 (antibody, V domains shown)
VH: QLQLQESGPGLVKPSETLSLTCTVSGGSISSSSYYWGWIRQPPGKGLEWIGSIYYSGSTYYNPSLKSRVTISVDTSKNQFSLKLSSVTAADTAVYYCARVGHGISYFDLWGRGTLVTVSS
VL: EIVLTQSPATLSLSPGERATLSCRASQSVSSYLAWYQQKPGQAPRLLIYDASNRATGIPARFSGSGSGTDFTLTISSLEPEDFAVYYCQQAYVWPPRTFGGGTKVEIK
B9: 5883 (antibody, V domains shown)
VH: QVQLVQSGAEVKKPGSSVKVSCKASGGTFSSYAISWVRQAPGQGLEWMGGIIPIGGGANYAQKFQGRVTITADESTSTAYMELSSLRSEDTAVYYCARSGGTKYGMLDVWGQGTMVTVSS
VL: EIVMTQSPATLSVSPGERATLSCRASQSVSSNLAWYQQKPGQAPRLLIYGASTRATGIPARFSGSGSGTEFTLTISSLQSEDFAVYYCQQLILWPPRTFGGGTKVEIK
B10: 5874 (antibody, V domains shown)
VH: EVQLLESGGGLVQPGGSLRLSCAASGFTFGSYAMSWVRQAPGKGLEWVSATSGSGGSTYYADSVKGRFTISRDNSKNTLYLQMDSLRAEDTAVYYCAKGGSQWLYAPGSWFDPWGQGTLVTVSS
VL: EIVLTQSPATLSLSPGERATLSCRASQSVSSYLAWYQQKPGQAPRLLIYDASNRATGIPARFSGSGSGTDFTLTISSLEPEDFAVYYCVQRSNFPWTFGGGTKVEIK
B11: 5875 (antibody, V domains shown)
VH: EVQLLESGGGLVQPGGSLRLSCAASGFTFSTYAMGWVRQAPGKGLEWVSATSGSGGSTYYADSVKGRFTISRDNSKNTLYLQMNSLRAEDTAVYYCAKGGSQWLYAPGSWFDPWGQGTLVTVSS
VL: EIVLTQSPATLSLSPGERATLSCRASQSVSSYLAWYQQKPGQAPRLLIYDASNRATGIPARFSGSGSGTDFTLTISSLEPEDFAVYYCVQRSNFPWTFGGGTKVEIK
B12: 5876 (antibody, V domains shown)
VH: EVQLLESGGGLVQPGGSLRLSCAASGFTFSSRAMGWVRQAPGKGLEWVSATSGSGGSIYYADSVKGRFTISRDNSKNTLYLQMNSLRAEDTAVYYCAKGGSQWLYAPGSWFDPWGQGTLVTVSS
VL: EIVLTQSPATLSLSPGERATLSCRASQSVSSYLAWYQQKPGQAPRLLIYDASNRATGIPARFSGSGSGTDFTLTISSLEPEDFAVYYCVQRSNFPWTFGGGTKVEIK

Tests used:
Experiment in all cases: cell-based or functional assay
murine BACE1 ECD = biological target: murine BACE1 ECD
human BACE1 ECD = human BACE1 ECD (human, UniProt P56817)
[1] = biological target: BACE1 endogenous to primary cortical neurons from E16.5 CD1 mice (mouse, UniProt P56818 46-501)
[2] = biological target: BACE1 ECD (as used in the enzyme activity assay) (UniProt P56817 22-457, limits assumed)
For % inhibition, FRET short substrate assay (negative = activation) in this document: test concentration or dose not given here.

Sequence of murine BACE1 ECD (single chain, as listed by the source limits assumed): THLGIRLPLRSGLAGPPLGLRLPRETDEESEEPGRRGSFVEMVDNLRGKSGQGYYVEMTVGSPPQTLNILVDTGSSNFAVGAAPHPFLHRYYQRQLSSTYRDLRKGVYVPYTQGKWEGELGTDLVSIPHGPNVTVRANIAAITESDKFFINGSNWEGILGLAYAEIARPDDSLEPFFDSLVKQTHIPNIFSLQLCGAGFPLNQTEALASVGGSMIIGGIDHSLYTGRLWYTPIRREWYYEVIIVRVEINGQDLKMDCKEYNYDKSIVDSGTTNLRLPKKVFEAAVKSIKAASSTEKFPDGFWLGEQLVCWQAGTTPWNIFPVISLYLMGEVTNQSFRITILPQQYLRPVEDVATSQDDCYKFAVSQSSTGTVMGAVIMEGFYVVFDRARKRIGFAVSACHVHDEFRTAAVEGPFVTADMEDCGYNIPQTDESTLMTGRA
Sequence of BACE1 ECD (as used in the enzyme activity assay) (P56817 22-457 limits assumed): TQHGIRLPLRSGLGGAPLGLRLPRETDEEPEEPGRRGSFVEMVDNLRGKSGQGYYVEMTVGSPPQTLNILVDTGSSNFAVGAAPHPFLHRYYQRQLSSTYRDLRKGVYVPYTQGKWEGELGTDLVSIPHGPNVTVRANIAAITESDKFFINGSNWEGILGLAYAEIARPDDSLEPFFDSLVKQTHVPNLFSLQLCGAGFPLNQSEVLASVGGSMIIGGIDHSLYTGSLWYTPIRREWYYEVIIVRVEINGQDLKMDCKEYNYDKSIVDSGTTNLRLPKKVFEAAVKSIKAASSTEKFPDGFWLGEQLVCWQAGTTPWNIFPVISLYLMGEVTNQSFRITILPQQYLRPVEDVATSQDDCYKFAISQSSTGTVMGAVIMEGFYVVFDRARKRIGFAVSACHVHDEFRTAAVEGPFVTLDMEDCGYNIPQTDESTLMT
Sequence of human BACE1 ECD (P56817 22-457): as the sequence (P56817 22-457 limits assumed) above
Sequence of BACE1 endogenous to primary cortical neurons from E16.5 CD1 mice (P56818 46-501): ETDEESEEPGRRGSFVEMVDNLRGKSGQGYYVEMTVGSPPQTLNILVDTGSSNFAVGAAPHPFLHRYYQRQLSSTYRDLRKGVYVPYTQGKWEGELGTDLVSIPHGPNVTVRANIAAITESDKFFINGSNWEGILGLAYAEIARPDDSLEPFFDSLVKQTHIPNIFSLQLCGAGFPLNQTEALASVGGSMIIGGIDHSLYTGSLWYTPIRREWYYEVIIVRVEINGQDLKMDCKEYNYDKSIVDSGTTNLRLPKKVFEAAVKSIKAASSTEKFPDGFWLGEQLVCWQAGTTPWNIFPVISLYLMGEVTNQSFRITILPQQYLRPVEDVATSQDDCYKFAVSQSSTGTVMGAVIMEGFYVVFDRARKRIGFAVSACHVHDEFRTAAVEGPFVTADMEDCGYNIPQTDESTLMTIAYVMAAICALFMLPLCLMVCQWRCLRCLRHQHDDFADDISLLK

| Binder | % inhibition, FRET short substrate assay (negative = activation) (murine BACE1 ECD) [%] | % inhibition, FRET short substrate assay (negative = activation) (human BACE1 ECD) [%] | max % inhibition, Abeta x-40 in mouse cortical neurons [1] [%] | EC50, FRET short substrate assay [2] [nM] | EC50, HTRF long substrate assay [2] [nM] |
| --- | --- | --- | --- | --- | --- |
| B1 | -35 | -54 | 74 | 36.8 | 720 |
| B2 |  |  | 60 | 1.41 | 17.7 |
| B3 | 77 | 75 | 73 | 15.9 | 1.28 |
| B4 | -175 | -89 | 84 | 0.417 | 5.06 |
| B5 |  |  | 67 |  |  |
| B6 | 30 | 32 | 84 |  | 0.578 |
| B7 |  |  | 74 |  |  |
| B8 |  |  | 65 | 9.11 | 30 |
| B9 | -275 | -129 | 82 | 0.607 | 5.93 |
| B10 | 33 | 37 |  | 0.798 | 3.97 |
| B11 | 39 | 51 |  | 1.99 | 4.9 |
| B12 | 46 | 58 |  | 0.703 | 1.67 |
